# Reference: patent US7078174B1, “Screening methods using SOCS box-containing peptides” (The Walter & Eliza Hall Institute of Medical Research, priority 1998, dated 2006)
# B1: full-length SOCS-1: N-terminally FLAG-tagged full-length mouse SOCS-1 stably expressed in M1 cells (protein)
# chain: DYKDDDDKMVARNQVAADNAISPAAEPRRRSEPSSSSSSSSPAAPVRPRPCPAVPAPAPGDTHFRTFRSHSDYRRITRTSALLDACGFYWGPLSVHGAHERLRAEPVGTFLVRDSRQRNCFFALSVKMASGPTSIRVHFQAGRFHLDGSRETFDCLFELLEHYVAAPRRMLGAPLRQRRVRPLQELCRQRIVAAVGRENLARIPLNPVLRDYLSSFPFQI
# B2: WSB-2: N-terminally FLAG-tagged WSB-2 protein transfected into 293T fibroblasts (protein)
# chain: DYKDDDDKMEAGEEPLLLAELKPGRPHQFDWKSSCETWSVAFSPDGSWFAWSQGHCVVKLVPWPLEEQFIPKGFEAKSRSSKNDPKGRGSLKEKTLDCGQIVWGLAFSPWPSPPSRKLWARHHPQAPDVSCLILATGLNDGQIKIWEVQTGLLLLNLSGHQDVVRDLSFTPSGSLILVSASRDKTLRIWDLNKHGKQIQVLSGHLQWVYCCSISPDCSMLCSAAGEKSVFLWSMRSYTLIRKLEGHQSSVVSCDFSPDSALLVTASYDTSVIMWDPYTGERLRSLHHTQLEPTMDDSDVHMSSLRSVCFSPEGLYLATVADDRLLRIWALELKAPVAFAPMTNGLCCTFFPHGGIIATGTRDGHVQFWTAPRVLSSLKHLCRKALRSFLTTYQVLALPIPKKMKEFLTYRTF
# B3: SSB-1: N-terminally FLAG-tagged SSB-1 protein transfected into 293T fibroblasts (protein)
# chain: DYKDDDDKMGQKVTGGIKTVDMRDPTYRPLKQELQGLDYCKPTRLDLLLDMPPVSYDVQLLHSWNNNDRSLNVFVKEDDKLIFHRHPVAQSTDAIRGKVGYTRGLHVWQITWAMRQRGTHAVVGVATADAPLHSVGYTTLVGNNHESWGWDLGRNRLYHDGKNQPSKTYPAFLEPDETFIVPDSFLVALDMDDGTLSFIVDGQYMGVAFRGLKGKKLYPVVSAVWGHCEIRMRYLNGLDPEPLPLMDLCRRSVRLALGKERLGAIPALPLPASLKAYLLYQ
# What was measured:
# [1] = target: T1, endogenous elongins B and C (Mus musculus, UniProt P62869+P83940); assay: Interaction of FLAG-tagged SOCS-1 with endogenous elongins in M1 cells (anti-FLAG resin, Western blot); type: binding, murine; conditions: M1 cells stably expressing FLAG-tagged protein, anti-FLAG immunoprecipitation
# T1 construct: endogenous in cells; host or cells: M1 murine monocytic leukemic cells
# Protocol: Two liters of M1 cells stably expressing either full-length SOCS-1 or SOCS-1 lacking SOCS box (with N-terminal FLAG epitopes) were grown in DME containing 5% bovine calf serum, 10 μg/ml puromycin and 50 ng/ml murine IL-6. The cells were harvested and incubated in 20 ml of culture media containing 10 μM proteasome-specific inhibitor, N-acetyl-L-leucinyl-L-leucinyl-norleucinal (LLnL; Sigma, St. Louis, Mo.) for 30 min at 37° C. The cells were lysed in 14 ml of lysis buffer supplemented with protease inhibitors (Complete Cocktail tablets), 1 mM PMSF, 1 mM Na3VO4, 1 mM NaF and 10 μM LLnL. Total cell lysates were centrifuged at 15,000 rpm (SS34 rotor) for 15 min at 4° C. and the clarified supernatants incubated with 0.3 ml of M2 anti-FLAG antibody resin for 3 h at 4° C. Resin was then washed with 10 ml of lysis buffer and the bound proteins were eluted with 6×150 μl of 100 μg/m FLAG peptide in lysis buffer.
# (§1) Proteins were immunoprecipitated with anti-myc (9E10; WEHI) and protein A-Sepharose or anti-FLAG antibody conjugated to Sepharose (KM5-IC7; WEHI) and separated by sodium dodecyl sulphate-polyacrylamide gel electrophoresis (SDS-PAGE) (Biorad, Hercules, Calif.) under reducing conditions. Proteins were then electrophoretically transferred to PVDF-Plus membranes (Micron Separations Inc. WestBorough, Mass.) and Western blotted as described (8).
# [2] = tested on: elongin B, elongin C, cullin 2, JAK1, gp130; assay: Analysis of proteins interacting with SOCS-1 in unstimulated M1 cells (anti-FLAG affinity column, Western blot); type: binding, murine; conditions: 10^9 unstimulated M1 cells, anti-FLAG affinity column eluate
# Source text: The inventors passed lysates from 10^9 unstimulated M1 cells expressing FLAG-tagged SOCS-1 through an anti-FLAG affinity column which was then eluted with FLAG peptide. The eluate was then subjected to SDS-PAGE and the proteins were Western blotted. The blot was then probed with anti-FLAG antibodies to confirm the presence of SOCS-1 and with a range of antibodies against proteins thought to interact with SOCS-1 (FIG. 7). […] To determine whether proteins in this complex interact directly or indirectly with SOCS-1, or whether all the proteins can be found together in a single complex, or whether separate complexes are, for example, formed between SOCS-1, JAK-1 and gp130 on one hand and between SOCS-1, elongin B and C and cullin-2, is addressed in part by performing the primary immunoprecipitation using a different antibody.
# Further, the nature of the complex is analyzed by repeating experiments using a mutant SOCS protein which lacks one or more domains. In the case described above, the inventors have performed an identical analysis using M1 cells expressing a FLAG-tagged mutant of SOCS-1 lacking the SOCS box. […] This type of experiment addresses whether interactions are direct or indirect. Further analysis involves approaches of the type described below.
# [3] = target: T2, elongins B and C (Mus musculus, UniProt P62869+P83940); assay: Co-transfection of 293T cells with SOCS box proteins and elongins B and C, co-immunoprecipitation; type: binding; conditions: anti-myc immunoprecipitation, anti-FLAG Western blot
# T2 construct: expressed in transfected cells; host or cells: 293T human fibroblast cell line, vector pEF-BOS
# Source text: The cDNAs encoding mouse SOCS-1, SOCS-3, WSB-1, SSB-1, ASB-1, have been described previously (1,8). Constructs in pEF-FLAG1 encoding these proteins, with or without the SOCS box, with an N-terminal FLAG epitope tag (DYKDDDDK) (SEQ ID NO:1) were generated by PCR essentially as described (8) (found at http://www.wehi.edu.au/willson vectors). DNA fragments encoding mouse elongins B and C were amplified using PCR from a 17-day embryo cDNA lambda library (Clontech ML5014t) and were expressed with N-terminal FLAG or myc (DQKLISEEDL) (SEQ ID NO:2) epitope tags, respectively, using the mammalian expression vector pEF-BOS.
# The murine monocytic leukemic cell line, M1, and the 293T human fibroblast cell line were maintained and transfected as described (8).
# as §1
# T2 sequence (P83940 whole entry): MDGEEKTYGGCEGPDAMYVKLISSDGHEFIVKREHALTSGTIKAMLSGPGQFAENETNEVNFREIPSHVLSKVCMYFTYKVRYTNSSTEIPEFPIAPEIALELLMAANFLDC
# T2 sequence (P62869 whole entry): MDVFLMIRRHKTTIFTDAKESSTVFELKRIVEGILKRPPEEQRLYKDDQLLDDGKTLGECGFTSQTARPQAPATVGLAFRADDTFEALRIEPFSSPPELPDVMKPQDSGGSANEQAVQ
# T1 sequence (P83940 whole entry): as the sequence (P83940 whole entry) above
# T1 sequence (P62869 whole entry): as the sequence (P62869 whole entry) above
Molecule,association with endogenous elongins B and C [1],"complex formation with elongin B, elongin C, cullin 2, JAK1 and gp130 [2]",co-immunoprecipitation with elongin C (and elongin B) [3]
B1,associated with bound elongins B and C,"capable of forming a complex with elongin B and elongin C, cullin 2, as well as JAK1 and gp130",
B2,,,found to co-immunoprecipitate along with elongin B with elongin C
B3,,,found to co-immunoprecipitate along with elongin B with elongin C
